Reference: PMC10161774

Target: T1, Recombinant tissue transglutaminase (tG) (human), P21980
T1 chain: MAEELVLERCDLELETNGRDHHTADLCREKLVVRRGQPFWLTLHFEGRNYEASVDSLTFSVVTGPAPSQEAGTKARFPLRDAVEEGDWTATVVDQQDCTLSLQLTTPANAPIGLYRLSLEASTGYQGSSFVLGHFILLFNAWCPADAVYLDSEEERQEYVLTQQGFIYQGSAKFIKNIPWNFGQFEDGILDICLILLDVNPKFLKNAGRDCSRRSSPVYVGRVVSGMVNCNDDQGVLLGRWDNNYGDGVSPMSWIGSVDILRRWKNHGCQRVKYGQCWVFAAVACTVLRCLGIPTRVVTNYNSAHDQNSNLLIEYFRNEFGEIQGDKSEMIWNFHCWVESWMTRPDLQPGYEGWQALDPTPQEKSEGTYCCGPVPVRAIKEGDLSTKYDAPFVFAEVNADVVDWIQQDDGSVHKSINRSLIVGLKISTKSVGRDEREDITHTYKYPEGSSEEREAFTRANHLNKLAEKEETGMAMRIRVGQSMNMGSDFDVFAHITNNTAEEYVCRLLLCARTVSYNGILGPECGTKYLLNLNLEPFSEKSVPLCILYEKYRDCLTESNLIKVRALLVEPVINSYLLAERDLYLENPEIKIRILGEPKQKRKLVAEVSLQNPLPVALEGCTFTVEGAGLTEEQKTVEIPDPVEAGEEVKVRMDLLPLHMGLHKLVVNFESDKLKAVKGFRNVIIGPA
Test: time-resolved SAXS; Kenics mixer (straight opening device, reaction class 3); 2 mg ml^-1 tG mixed with 4 mM CaCl2 in 20 mM HEPES pH 7.5, 100 mM NaCl, 10% glycerol, 1 mM DTT; time points 32-1500 ms; monomer to dimer
Settings: remark: other sources report otherwise

B1: Recombinant tissue transglutaminase (tG), P21980 1-687 (enzyme)
chain: MAEELVLERCDLELETNGRDHHTADLCREKLVVRRGQPFWLTLHFEGRNYEASVDSLTFSVVTGPAPSQEAGTKARFPLRDAVEEGDWTATVVDQQDCTLSLQLTTPANAPIGLYRLSLEASTGYQGSSFVLGHFILLFNAWCPADAVYLDSEEERQEYVLTQQGFIYQGSAKFIKNIPWNFGQFEDGILDICLILLDVNPKFLKNAGRDCSRRSSPVYVGRVVSGMVNCNDDQGVLLGRWDNNYGDGVSPMSWIGSVDILRRWKNHGCQRVKYGQCWVFAAVACTVLRCLGIPTRVVTNYNSAHDQNSNLLIEYFRNEFGEIQGDKSEMIWNFHCWVESWMTRPDLQPGYEGWQALDPTPQEKSEGTYCCGPVPVRAIKEGDLSTKYDAPFVFAEVNADVVDWIQQDDGSVHKSINRSLIVGLKISTKSVGRDEREDITHTYKYPEGSSEEREAFTRANHLNKLAEKEETGMAMRIRVGQSMNMGSDFDVFAHITNNTAEEYVCRLLLCARTVSYNGILGPECGTKYLLNLNLEPFSEKSVPLCILYEKYRDCLTESNLIKVRALLVEPVINSYLLAERDLYLENPEIKIRILGEPKQKRKLVAEVSLQNPLPVALEGCTFTVEGAGLTEEQKTVEIPDPVEAGEEVKVRMDLLPLHMGLHKLVVNFESDKLKAVKGFRNVIIGPA
  stoichiometry N: 2
